Data reported in the supplement of paper PMC9170038.

Test system: MS2 coat protein
Experiment: apparent KD of MS2 coat protein; designed switch direction (-1 OFF switch, 1 ON switch): -1; higher = weaker reporter binding
Summary of the method: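 Transcription of designed RNA switches on Illumina chips was done by stalled E. coli RNA polymerase. SNAP-549-labelled MS2 coat protein was then titrated in doubling steps from 0.7 or 1.5 nM to 3 µM, with steps of 0.8–1.5 h at the lowest and 10–20 min at the highest concentration. The per-design median over clusters of curve-fitted normalised fluorescence is reported as apparent KD.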

[1] = Eterna round: R95, input ligand: microRNA oligo, concentration not stated
[2] = Eterna round: R95, input ligand: FMN 200 uM
[3] = Eterna round: R95, input ligand: none
[4] = input ligand: microRNA oligo, concentration not stated

Sequence | apparent KD of MS2 coat protein (input ligand: FMN 200 uM) [nM] | apparent KD of MS2 coat protein (input ligand: none) [nM] | apparent KD of MS2 coat protein [1] [nM] | also measured
AGGUGUAGAGGAUAUCUAUCCUCCCACAUGAGGAUCACCCAUGUCCUGGUCACCAAGGACGGAGAAGGCUACACCA [Omei Ex5 D19] (Eterna round: R97, puzzle: Exclusion 5) | 153 | 292 |  | 
UGCCUACGUGUGAGGAUAUCAAGGUUUCCACACUAUGAGAAGGUACAUGAGGAUCACCCAUGUUUAGAUGAGCC [Eternabot (L2) Solution 43] (Eterna round: R97, puzzle: Brourd's mod of Exclusion 4) | 74.2 | 74.6 |  | 
AAUCCACAUGAGGAUCACCCAUGUGAGGAUAUGAUACUAUGUACUUCGGUACAUAGUAUCAGAAGGCACGGAUC [Ex1-3: 53] (puzzle: Exclusion 1) |  |  | 29.9 | 
CAGGAUAGAGGAUAUACAUAGAUACAGGUUCAUGUAAUCCUACAUGAGGAUCACCCAUGUAGAAGGCUAUCCUG [Fiskers Ex 2 - 19] (puzzle: Exclusion 2) |  |  | 14.8 | 
CUUUACAUAGGAUAUAGUUGCUUUUACAUGAGGAUCACCCAUGUCUCUCCUCUCUCUCUUCUAGAAGGAUGUUUCU [JR_E5_Sub010] (puzzle: Exclusion 5) |  |  | 56 | 
CUUUUGUGAGGAUAUGGUAACGAUGACAUGAGGAUCACCCAUGUAACAUGGGACUUGAGACUAGAAGGCACUAACG [JR_Ex5_Sub025] (Eterna round: R97, puzzle: Exclusion 5) | 94.7 | 134 |  | 
UUCCUACAUGAGGAUCACCCAUGUGAGGAUAUGCAUCGUAUUAUUCUCGUAUGUAGUAGCAGAAGGCGCAUUGG [Starry Exclusion 1.1] (puzzle: Exclusion 1) |  |  | 36.9 | apparent KD of MS2 coat protein [2]: 121 nM; apparent KD of MS2 coat protein [3]: 31.2 nM
CCUCCACAGGAGGAUAUCAUCAAACUAUUGUGAUGAGAAGGCCUGACAUGAGGAUCACCCAUGUUAACGUGAUG [Mod of Brourd 8 - Jieux - Exclusion 6] (Eterna round: R97, puzzle: Exclusion 6) | 209 | 58.1 |  | 
GCCGAUUAAGUGAGGAUAUACCUAUGGAUACAUAGGUAGAAGGUACAUGAGGAUCACCCAUGUUCCUCAUCGGC [Fiskers BMX 4 - 10] (puzzle: Brourd's mod of Exclusion 4) |  |  | 9.97 | 
AGCUGUGGCCGAGGAUAUACACAUGAGGAUCACCCAUGUAGGUGCGGAUACUCGCACCAAUAAGUGUAGAAGGCGGUCUCAGCA [Eli eng2 - 057] (Eterna round: R96, puzzle: Exclusion NG 2) | 14.6 | 19.2 |  | apparent KD of MS2 coat protein [4]: 13.2 nM
CUGCUGGAGCUUCGCUUUGGUCGUACAUGAGGAUCACCCAUGUAGGAUAUGGUAAAAUUCGCCUGCUAGAAGGAUAGAGUGGUC [salish99_ExNG3_r04_619] (Eterna round: R96, puzzle: Exclusion NG 3) |  |  |  | apparent KD of MS2 coat protein [4]: 80.1 nM
UCGUCCUGUGUAGGAUAUCGCGGGCUUUGCCCGCGAGAAGGACAUGAGGAUCACCCAUGUGGGCCGCGCCGCGGGCGCGGCCCA [new design] (Eterna round: R96, puzzle: Exclusion NG 1) | 1360 | 230 |  | apparent KD of MS2 coat protein [4]: 4700 nM
UUGAUGUAAGGAUAUCGUGCAAGUUUCAAAAGAGGCUUGUGCGAGAAGGUACAUGAGGAUCACCCAUGUAGGUU [Omei Ex4 B8] (Eterna round: R97, puzzle: Exclusion 4) | 113 | 31.7 |  | 
AGUUGGCGAGGAUAUACAUGAGGAUCACCCAUGUGAGAGAAAAAAGUGAGGAAGAAAAGUAGAAGGCGCUGACA [salish99_ex3_r3_038] (puzzle: Exclusion 3) |  |  | 48.3 | apparent KD of MS2 coat protein [2]: 318 nM; apparent KD of MS2 coat protein [3]: 77.3 nM
AAAUACAAGUAAAGAUCCUACAUGAGGAUCACCCAUGUGCUCGUCUUGUAAAGUACUAUCACGAAAGUGAUAGUACA [Sensor 3, v1 - 22] (puzzle: Sensor v3, turn-off variant 1) |  |  | 31.5 | apparent KD of MS2 coat protein [2]: 45.7 nM; apparent KD of MS2 coat protein [3]: 51 nM
AGUAACUAUCACGAAAGUGAUAGUUACACAAGUAGUGAAACAUGAGGAUCACCCAUGUCCUCAUUUGCUCGUCUUAU [Sensor 3 - 33] (puzzle: Sensor v3, turn-off variant 2) |  |  | 168 | apparent KD of MS2 coat protein [2]: 461 nM; apparent KD of MS2 coat protein [3]: 925 nM
GUAGUGUUAGGAUAUCUGCCUCCGAGGUAUUCCAUGAAUAGAGAGAAGGGACAUGAGGAUCACCCAUGUGGGUA [Eternabot (L2) Solution 92] (Eterna round: R97, puzzle: Exclusion 4) | 90.5 | 295 |  | 
UUGUUAUAUGUAGGAUAUGCAUAUUGUUGUUAUGCAGAAGGACAUGAGGAUCACCCAUGUAUAUUAUUGUUAUAUAUUGUAUAU [Title] (Eterna round: R96, puzzle: Exclusion NG 1) |  |  |  | apparent KD of MS2 coat protein [4]: 20.1 nM

Sequence | apparent KD of MS2 coat protein (input ligand: FMN 200 uM) [nM] | apparent KD of MS2 coat protein (input ligand: none) [nM] | apparent KD of MS2 coat protein [1] [nM] | also measured
GACCAGCUAGGAUAUACAUGAGGAUCACCCAUGUGCAUUAAAGGGCUGGGUGACCCGCGUAGAAGGAGCGGGUC [Ustieded] (Eterna round: R97, puzzle: Exclusion 3) | 13.9 | 14.5 |  | 
AUAUUACAUGAGGAUCACCCAUGUGAGGAUAUGGAGAGCGACCGCCCGGUCGCGUACACCAGAAGGCGCAGGCG [1st #59] (Eterna round: R97, puzzle: Exclusion 1) | 85.7 | 41.1 |  | 
AAGUCGAGCGUGAGGAUAUCGUCCGGACGACCCAACGAGAAGGCACAUGAGGAUCACCCAUGUGAUUCAGCUCA [Brourd's EX4 #50] (Eterna round: R97, puzzle: Brourd's mod of Exclusion 4) | 20.3 | 18.7 |  | 
GUAGAGUCAGGAUAUACGAGAUCGAAAGAUCAGUGGUCCUUACAUGAGGAUCACCCAUGUAGAAGGGACUCUAC [Omei mod 12 to Eli's favorate candidate (ch.parushev)] (Eterna round: R97, puzzle: Exclusion 2) | 39.6 | 790 |  | 
AUAUACGUUGAGGAUAUGCGAAUAAGUAUAGUUGCAGAAGGCGACACAUGAGGAUCACCCAUGUUCAUGGACAC [LRO-Ex6-03] (puzzle: Exclusion 6) |  |  | 26.6 | 
AAGAAACAUGAGGAUCACCCAUGUCAGGAUAUGAGAAGAAAGAAGAAGAAAGAAGGAAUCAGAAGGGACAAAGG [Ex 1 M6 Mod of Hoglahoo] (puzzle: Exclusion 1) |  |  | 51.7 | apparent KD of MS2 coat protein [2]: 45.5 nM; apparent KD of MS2 coat protein [3]: 41.8 nM
CGUGAGCGCGUCAGGAUAUGGCGGCGGCGGCGGCGCCAGAAGGGACAUGAGGAUCACCCAUGUUGCGUGCGUGG [Prefect Broudrd's mod of Exclusion] (Eterna round: R97, puzzle: Brourd's mod of Exclusion 4) | 73 | 39.3 |  | 
CGAACCCGAGGAUAUCGUAAACCCGACAUGAGGAUCACCCAUGUCAUCCUCACGGCGCCACGAGAAGGCGGUGUUU [Leinat] (puzzle: Exclusion 5) |  |  | 43.7 | 
CAGCUGAAAGUGAGGAUAUCUAGAGCUUCGGCUCUAGAGAAGGCACAUGAGGAUCACCCAUGUGAUCACAGCUG [BmEx4/7-A1] (Eterna round: R97, puzzle: Brourd's mod of Exclusion 4) | 633 | 356 |  | 
GAGUGCUGAGGAUAUACAUGAGGAUCACCCAUGUGCUUCAGCUAGGAGACUAGUAUCAGUAGAAGGCAGUACUC [Mod of lroppy 20 - Jieux - Exclusion 3] (Eterna round: R97, puzzle: Exclusion 3) | 57.3 | 14.7 |  | 
GCGCACCUACCAAAAGGUAGGUCAACAUGAGGAUCACCCAUGUAGGAUAUCGAUUGCUUUGCAGUCGAGAAGGGCAUGAUGCGC [JL ENG3 3.80 Mod 14] (Eterna round: R96, puzzle: Exclusion NG 3) | 59.1 | 44.2 |  | apparent KD of MS2 coat protein [4]: 36.6 nM
GUCAGCUCGUCAGGAUAUACAUGCGUGCUUCGGCACGUAUGAUAGAUCACAUGAGGAUCACCCAUGUAGAAGGGACGAGCUGAC [ENG2/4-B1] (Eterna round: R96, puzzle: Exclusion NG 2) | 13.2 | 12.5 |  | apparent KD of MS2 coat protein [4]: 9.92 nM
GUGUAGCAAGGAUAUACAUGAGGAUCACCCAUGUGAAUAAGAUAGAAUAAGAUAAAGUGUAGAAGGUGUAGUGU [Excluse me!!! 10 - Jieux - Exclusion 3] (puzzle: Exclusion 3) |  |  | 37.2 | 
UUGUUAUAUGUAGGAUAUGCAUAUUAUUAUUAUGCAGAAGGACAUGAGGAUCACCCAUGUAUAUUAUUAUUAUAUGUUAUAUAU [Title] (Eterna round: R96, puzzle: Exclusion NG 1) |  |  |  | apparent KD of MS2 coat protein [4]: 19.5 nM
UUAUUGUGAGGAUAUCAGGUGUGCUAGCGUACUGGUACAUCUGAGAAGGCACAUGAGGAUCACCCAUGUUUCUU [JL-ex4-3.22 Brourd mod] (Eterna round: R96, puzzle: Exclusion 4) | 69.6 | 25 |  | apparent KD of MS2 coat protein [4]: 18.9 nM
GGAGGACGAGCAGGAUAUUUUCACAUGAGGAUCACCCAUGUGUAAUCAGGGUAAUCCUCCGCCGAAAAGAAGGGUUCGGAAUAA [Mat - Exclusion NG 2 - Mod of JL - D82] (Eterna round: R96, puzzle: Exclusion NG 2) | 60 | 70.5 |  | apparent KD of MS2 coat protein [4]: 52.4 nM
GUGCCGCGAGGAUAUACAGACGGGUCCAUUACGUGUCUCGGACUUGAGGAUCACCCAAGUAGAAGGCGUCUCGG [salish99_ex2_r4_627] (Eterna round: R97, puzzle: Exclusion 2) | 26 | 27.9 |  | 
